Experimental data from publication PMC11194501.
Values belong to the substance of their own block, whether it stands above or below them.

Tests used:
[1] = biological target: MBP-Cep63N (fusion of MBP and the N-terminal fragment of Cep63) (human) (UniProt Q96MT8); experiment: ITC
[2] = biological target: Cep57N (Cep57 residues 56 to 251) (human) (UniProt Q86XR8); experiment: ITC
[3] = biological target: Cep57S-KR (Cep57S with six Lys and Arg residues of the K/R motif replaced by Ala) (human) (UniProt Q86XR8); experiment: pull-down; His-tagged Cep57S held on a Ni-NTA spin column, 0.1 mg α/β-tubulin added, 4 °C; 1X PBS pH 8.0, 1 mM 2-mercaptoethanol, 20 mM imidazole, 0.1% Triton X100, 10% glycerol; eluted with 400 mM imidazole, SDS-PAGE

Kd [1]: 600 nM
Substance: Cep57N (Cep57 residues 56 to 251) (from UniProt Q86XR8 56-251) (domain or fragment)

Kd [2]: 500 nM
stoichiometry N [2]: 0.6
Substance: MBP-Cep63N (fusion of MBP and the N-terminal fragment of Cep63) (from UniProt Q96MT8-2 1-541) (domain or fragment)

reduction of tubulin binding against Cep57S [3]: 65%
Substance: α/β-tubulin (from UniProt P02550 1-451; P02554 1-445) (complex)
